Experimental data as given in publication PMC6981144.

What was measured:
[1] = biological target: human SNAP_GLP1R (SNAP-tagged glucagon-like peptide-1 receptor) (human) (UniProt P43220); test: fluorescent ligand labelling of cells, confocal microscopy; transiently transfected YFP-AD293-SNAP_GLP1R cells; increasing concentrations of compound applied for 60 min; control cells without GLP1R
[2] = biological target: human SNAP_GLP1R (SNAP-tagged glucagon-like peptide-1 receptor) (human) (UniProt P43220)

Chain of human SNAP_GLP1R (SNAP-tagged glucagon-like peptide-1 receptor) (human) (P43220 24-463): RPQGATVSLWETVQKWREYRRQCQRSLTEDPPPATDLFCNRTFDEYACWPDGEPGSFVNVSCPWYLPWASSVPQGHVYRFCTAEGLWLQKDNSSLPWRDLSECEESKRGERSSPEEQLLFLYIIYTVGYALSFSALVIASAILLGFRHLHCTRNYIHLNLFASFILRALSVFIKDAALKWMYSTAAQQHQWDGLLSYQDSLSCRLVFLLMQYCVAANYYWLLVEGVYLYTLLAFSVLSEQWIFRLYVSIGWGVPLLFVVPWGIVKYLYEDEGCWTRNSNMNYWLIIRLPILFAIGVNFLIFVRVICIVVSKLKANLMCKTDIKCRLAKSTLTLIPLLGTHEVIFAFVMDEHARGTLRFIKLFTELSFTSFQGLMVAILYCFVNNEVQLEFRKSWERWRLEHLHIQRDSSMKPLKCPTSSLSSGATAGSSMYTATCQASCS

**Q.** How did the concentration of maximal labelling [1] turn out when LUXendin555 (peptide) was run?
**A.** The concentration of maximal labelling was 600 nM.

**Q.** With LUXendin645 (peptide) as the substance, how does the cAMP production (EC50) in HEK293-SNAP GLP1R cells, 30 min stimulation, with the positive allosteric modulator BETP (25 µM) [2] read?
**A.** The cAMP production (EC50) in HEK293-SNAP GLP1R cells, 30 min stimulation, with the positive allosteric modulator BETP (25 µM) was 192 nM.

**Q.** What about the concentration of maximal labelling [1] of the same substance?
**A.** The concentration of maximal labelling was 250 to 500 nM.
